Measured values taken from paper PMC4942345 (Organic & biomolecular chemistry, 2016).
Primed or numbered codes have the meaning given here. Where no end group is shown, it is not given here. [ ]: non-standard residue; d: D form. The star is where a group is joined. 4‑CBS″ = 4-carboxybenzylsulfonamide on the N-terminus, O=C(O)c1ccc(CS(=O)(=O)*)cc1; 4‑CBS = 4-carboxybenzylsulfonamide, O=C(O)c1ccc(CS(=O)(=O)*)cc1

Key:
[1] = target: human carbonic anhydrase II (human, UniProt P00918 1-260); test: SPR
[2] = target: human carbonic anhydrase I (human, UniProt P00915 1-261); test: SPR
human carbonic anhydrase I, sequence (P00915 whole entry): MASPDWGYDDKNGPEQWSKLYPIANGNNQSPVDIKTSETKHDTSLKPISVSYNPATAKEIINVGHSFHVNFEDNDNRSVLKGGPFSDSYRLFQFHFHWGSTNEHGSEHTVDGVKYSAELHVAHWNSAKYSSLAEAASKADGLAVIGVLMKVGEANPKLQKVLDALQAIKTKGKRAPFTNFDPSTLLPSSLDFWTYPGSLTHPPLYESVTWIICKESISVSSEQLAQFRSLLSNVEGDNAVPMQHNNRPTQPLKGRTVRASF

Row | Binder | Kd [1] [nM] | Kd [2] [nM]
1 | {4‑CBS″}-[dD][dV][dE][dY][dE]-NH2 [4-CBS-dveye] | 97 | 121
2 | {4‑CBS″}-[dD][dL][dE][dE][dY]-NH2 [4-CBS-dleey] | 88 | 116
3 | {4‑CBS″}-[dD][dV][dD][dD][dL]-NH2 [4-CBS-dvddl] | 156 | 137
4 | {4‑CBS″}-[dD][dV][dE][dV][dL]-NH2 [4-CBS-dvevl] | 82 | 151
5 | {4‑CBS}-[dD][dV][dD][dV][dL] [4-CBS-dvdvl] | 82 | 83
6 | {4‑CBS}-LKEYD [4-CBS-LKEYD] | 59 | 81

The next lines start with the values.

Row | Kd [1] [nM] | Kd [2] [nM] | Binder
7 | 82 | 102 | {4‑CBS″}-[dD][dV][dD][dD][dY]-NH2 [4-CBS-dvddy]
8 | 185 | 130 | {4‑CBS″}-[dD][dA][dD][dV][dL]-NH2 [4-CBS-dadvl]
9 | 22 | 25 | {4‑CBS}-[dD][dL][dD][dD][dW] [4-CBS-dlddw]
10 | 63 | 55 | {4‑CBS″}-[dD][dV][dD][dE][dY]-NH2 [4-CBS-dvdey]
